Results from IntAct's records for PubMed 18923430.

B1: DnaJ homolog subfamily C member 3 (Mus musculus), Q91YW3 (parent)
chain: MVAPGSVGSRLGAVFPFLLVLVDLQYEGAECGVNADVEKHLELGKKLLAAGQLADALSQFHAAVDGDPDNYIAYYRRATVFLAMGKSKAALPDLTKVIALKMDFTAARLQRGHLLLKQGKLDEAEDDFKKVLKSNPSEQEEKEAESQLVKADEMQRLRSQALDAFDGADYTAAITFLDKILEVCVWDAELRELRAECFIKEGEPRKAISDLKAASKLKSDNTEAFYKISTLYYQLGDHELSLSEVRECLKLDQDHKRCFAHYKQVKKLNKLIESAEELIRDGRYTDATSKYESVMKTEPSVAEYTVRSKERICHCFSKDEKPVEAIRICSEVLQMEPDNVNALKDRAEAYLIEEMYDEAIQDYEAAQEHNENDQQIREGLEKAQRLLKQSQKRDYYKILGVKRNAKKQEIIKAYRKLALQWHPDNFQNEEEKKKAEKKFIDIAAAKEVLSDPEMRKKFDDGEDPLDAESQQGGGGNPFHRSWNSWQGFNPFSSGGPFRFKFHFN

Variants of: B1
Details: with bip_human HSPA5, P11021
Chain of bip_human HSPA5, P11021 (P11021 whole entry): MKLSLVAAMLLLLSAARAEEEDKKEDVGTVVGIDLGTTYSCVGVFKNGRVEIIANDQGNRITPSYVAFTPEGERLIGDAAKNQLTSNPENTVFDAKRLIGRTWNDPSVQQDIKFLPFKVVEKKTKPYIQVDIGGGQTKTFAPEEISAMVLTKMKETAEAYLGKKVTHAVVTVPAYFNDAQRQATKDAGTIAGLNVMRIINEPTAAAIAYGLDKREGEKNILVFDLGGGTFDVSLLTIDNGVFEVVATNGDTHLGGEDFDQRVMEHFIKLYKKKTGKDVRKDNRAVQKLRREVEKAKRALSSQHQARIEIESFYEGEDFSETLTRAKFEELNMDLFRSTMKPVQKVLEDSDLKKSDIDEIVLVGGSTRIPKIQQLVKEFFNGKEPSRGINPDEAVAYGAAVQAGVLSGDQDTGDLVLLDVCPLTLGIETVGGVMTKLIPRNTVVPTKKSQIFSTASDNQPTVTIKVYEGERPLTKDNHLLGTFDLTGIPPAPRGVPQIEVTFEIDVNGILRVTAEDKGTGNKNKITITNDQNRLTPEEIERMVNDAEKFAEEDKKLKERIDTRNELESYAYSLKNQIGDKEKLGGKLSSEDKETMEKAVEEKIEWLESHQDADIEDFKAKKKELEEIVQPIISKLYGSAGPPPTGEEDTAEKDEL

| Variant | effect of a mutation on the interaction |
| --- | --- |
| H422Q | disrupting interaction |
